The record followed here is paper PMC1483224.

For this data set, the target named is T1, MutS (Escherichia coli, UniProt P23909 1-853).
T1 sequence: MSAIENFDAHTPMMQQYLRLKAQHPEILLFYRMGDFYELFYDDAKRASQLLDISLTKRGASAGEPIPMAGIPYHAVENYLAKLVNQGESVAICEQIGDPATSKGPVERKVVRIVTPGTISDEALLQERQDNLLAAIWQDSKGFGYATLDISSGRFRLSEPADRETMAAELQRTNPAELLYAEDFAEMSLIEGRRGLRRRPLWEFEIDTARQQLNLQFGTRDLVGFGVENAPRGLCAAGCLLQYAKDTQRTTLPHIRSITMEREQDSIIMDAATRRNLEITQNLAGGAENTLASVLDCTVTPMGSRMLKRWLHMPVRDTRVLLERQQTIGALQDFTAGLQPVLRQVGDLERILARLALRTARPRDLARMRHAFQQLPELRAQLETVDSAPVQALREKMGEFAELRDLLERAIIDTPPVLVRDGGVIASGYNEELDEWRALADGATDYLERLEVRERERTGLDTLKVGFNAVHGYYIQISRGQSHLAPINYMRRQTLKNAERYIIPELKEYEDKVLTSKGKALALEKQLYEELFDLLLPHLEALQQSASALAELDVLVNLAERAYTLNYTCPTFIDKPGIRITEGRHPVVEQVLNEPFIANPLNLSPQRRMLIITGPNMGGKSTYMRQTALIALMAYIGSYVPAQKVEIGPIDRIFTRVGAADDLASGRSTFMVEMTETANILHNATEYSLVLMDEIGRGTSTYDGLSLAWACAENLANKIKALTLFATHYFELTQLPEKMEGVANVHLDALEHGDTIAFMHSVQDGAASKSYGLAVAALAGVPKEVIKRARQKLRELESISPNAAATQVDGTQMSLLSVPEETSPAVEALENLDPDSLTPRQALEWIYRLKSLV
Description: impedance spectroscopy, CV.

B1: CT heteroduplex (dsDNA)
DNA 1: GACGAGCCGCCCGCTAGCGTCG
DNA 2: CGACGCTAGCGTGCGGCTCGTC
On to B1, for which the binding signal is 1680 Ohm/cm (Rct calibration slope as printed).

B2: GT heteroduplex (dsDNA)
DNA 1: GACGAGCCGCGCGCTAGCGTCG
DNA 2: CGACGCTAGCGTGCGGCTCGTC
Turning to B2, the binding signal is 3380 Ohm/cm (Rct calibration slope as printed).

B3: CC heteroduplex (dsDNA)
DNA 1: GACGAGCCGCCCGCTAGCGTCG
DNA 2: CGACGCTAGCGCGCGGCTCGTC
For the molecule B3, the binding signal is 1050 Ohm/cm (Rct calibration slope as printed).
